From article PMC6557989, “The Molecular Basis of Human IgG-Mediated Enhancement of C4b-Binding Protein Recruitment to Group A Streptococcus” (Frontiers in Immunology, 2019)

Target: T1, Protein H (Streptococcus pyogenes (strain AP1), ^125I-labelled in the plate binding assay; Alexa-488 succinimidyl ester-labelled in thermophoresis; unlabelled elsewhere)
T1 construct: Protein H, surface protein of the M protein family of Streptococcus pyogenes AP1; recombinant; theoretical mass of the monomer 42 kDa; written as the single chain because its self-association is itself measured; also called ^125I-Protein H; source: E. coli, expressed and purified (previously described protocols)
T1 chain: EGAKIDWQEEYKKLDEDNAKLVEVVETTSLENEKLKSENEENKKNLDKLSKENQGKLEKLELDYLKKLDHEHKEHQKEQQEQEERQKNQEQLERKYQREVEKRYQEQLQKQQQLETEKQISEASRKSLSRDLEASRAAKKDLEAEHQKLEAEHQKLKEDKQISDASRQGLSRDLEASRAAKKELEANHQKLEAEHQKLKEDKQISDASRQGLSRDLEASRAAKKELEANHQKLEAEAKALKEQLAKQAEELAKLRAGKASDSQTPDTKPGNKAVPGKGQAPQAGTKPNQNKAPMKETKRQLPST
Assay: native gel or EMSA; native horizontal agarose gel, 75 mM sodium barbital pH 8.6, Coomassie blue; two proteins pre-incubated in PBS 1 h at 37°C (ratios as C4BP:IgG:Protein H 1:10:10)
Conditions: both partners purified

B1: Denosumab (monoclonal human IgG2) (antibody, V domains shown)
VH: EVQLLESGGGLVQPGGSLRLSCAASGFTFSSYAMSWVRQAPGKGLEWVSGITGSGGSTYYADSVKGRFTISRDNSKNTLYLQMNSLRAEDTAVYYCAKDPGTTVIMSWFDPWGQGTLVTVSS
VL: EIVLTQSPGTLSLSPGERATLSCRASQSVRGRYLAWYQQKPGQAPRLLIYGASSRATGIPDRFSGSGSGTDFTLTISRLEPEDFAVFYCQQYGSSPRTFGQGTKVEIK
notes: constant region of the human IgG2 heavy chain; it is here the ligand of Protein H through its Fc; Recombinantly expressed drug antibody; also called hu-IgG2; source: bought: Amgen
B1: binds.
